Drawing on a protein production outcome set (Wang et al. 2014), this text covers protein production for 18 sequences.

This data set in a line: label from the status in PepcDB records.
On to “MVTIPIFLIIIGATMAVVVWSAKRTKSAADFYTAGGGITGTQNGWAIAGDYMSAASFLGISGMISLYGYDGFMYSVGWLVAYITVLLIVAEPCRNAGKYTLGDILSFRTEPKVVRAVCAISVVAVSTFYLTAQMVGAGKLMQLLLGIPYKFAIIGVGILMVGYVVFGGMTATTWVQIIKAGLLMTGAGLLSVLVGLKAGMNPFTFFNDIATNPNIIEHVQKAVLKDPVAVAGFDYGQRFLEPGLFLKNPLDQISLGMALVLGTAGMPHILMRFFTVPTAQAARKSVIVAMFIIGSFYILTTLLGFGAAIHVTPQGITAVDKGGNMAAMMLAQQLGGDISPFLGDLLLAFLCAVAFATILAVVSGLVLAASAAIAHDIYVNVIKDGHADQHEQVMAARITSLCVGAMGIIIGIAAEKQNVAHLVALAFAVASSGNLPVVVMSLFWRKFNTAGVVSGLVVGTVASIALVMVSPNMTYPKVVAADAQKVVTKLEEKQAGGAVLTEKEMKDLDKAKADYAKNKDGKSMLGLDKPLIKLKNPGIISIPLGFLAAIIGCLAFPSRRSEEMFDEIYVRQNTGIGMAKAIDH”, for which the protein production entry is recorded as “failed”.

On to “MVTSEGLASVDSWLYRQGFNVDSWLLSDTFSHDNDLLARALHTTVTAPHTLTPSSAFFDSSAVSHPSSTNTLSSTVSGASDPEIIGGGAKRKRNCLLTDGKAAKRRARASKKSQTTFITADPSNFRQMVQQVTGAKYIDDSSSFGIFDPIVKPEPLRFVNKLPCGPSDRSTAVPMLDTSAFLSNHHQENLAVGNAFSGNSSSVGLPSGKPSATADPGGSAVEFDNYPTFPTLESWKVM”, for which the protein production result is given as “failed”.

“MVVAPYLAVAIGGSLGAMSRYLVTIMAQNAWGIKFPYGTLLVNTLGSFLAGFFLIVLVGRFSAEESFRLFLFTGFLGAFTTFSSFAAESLFMFEQGYWFKLMTNILVNNVGSLSMVFIGTLVAKYVLLGHQGSN”: the protein production entry is recorded as “failed”.

With “MVVKMIEKYVEFIGEHELDAIFKIAEKIKDLSILHVNSTKAGGGVAEILNRMLPLMKELGLNVDWKVIKGDNEFFNVTKSFHNSLQNGTGNIPDEYFKIYDKWQEINLSEIPLDYDIMFIHDPQPAGLIKFKKGNSNKWIWRCHIDISNPYPPVWNFLRKYISKYDSMIISVPSFGRDDIEIPQFVIPPSIDPLSIKNRDMSETTILRILYKFGINLEKPLITQVSRFDYAKDPLGVIQAYKLAKRHVDIQLLYVGSPATDDPEGEKVYSEVVKASEGDKDIHLLMLPPYSDLEINVFQTASTVVMQKSIKEGFGLTVSEAMWKRKPVIGGNTGGIPLQVINGITGFLVNSPQGASHYIIYLIRNEEIRRRLGTNAREHIRRNFLITRELRDYLMTIVYVANRGLASLNSHESISNHLEHHHHHH”, the protein production entry is “failed”.

Consider “MVVMIKLRDELGTATTDSAQKILLLGSGELGKEIAIEAQRLGVEVVAVDRYANAPAMQVAHRSYVGNMMDKDFLWSVVEREKPDAIIPEIEAINLDALFEFEKDGYFVVPNARATWIAMHRERLRETLVKEAKVPTSRYMYATTLDELYEACEKIGYPCHTKAIMSSSGKGSYFVKGPEDIPKAWEEAKTKARGSAEKIIVEEHIDFDVEVTELAVRHFDENGEIVTTFPKPVGHYQIDGDYHASWQPAEISEKAEREVYRIAKRITDVLGGLGIFGVEMFVKGDKVWANEVSPRPHDTGMVTLASHPPGFSEFALHLRAVLGLPIPGEWVDGYRLFPMLIPAATHVIKAKVSGYSPRFRGLVKALSVPNATVRLFGKPEAYVGRRLGIALAWDKDVEVAKRKAEMVAHMIELRTRSSDWHDQNYEKRKHLLR”, for which the protein production result is listed as “not failed”.

Regarding “MVVMSKVLLNIGCADVDKPGYINVDARKTKVTHLVSNAWDLDCFEENSVHEIYSRHMLEHLNPEYAKLALQKWFYILEPEGKLVVIVPDIEFHARQLLGVSRSSFGDQMEHAFAGFWGWREKERGGSDFDAHQWGYTVATLENEIGAVGFERIERVVEGVDSEPWHLQMTARKPMTSLCCPMDFRGPFPLEHHHHHH”, the protein production result was “not failed”.

As to “MVVNESMYQLGSVRSAIRELFEYGKKRAAIVGKENVYDFSIGNPSIPAPQIVNDTIKELVTDYDSVALHGYTSAQGDVETRAAIAEFLNNTHGTHFNADNLYMTMGAAASLSICFRALTSDAYDEFITIAPYFPEYKVFVNAAGARLVEVPADTEHFQIDFDALEERINAHTRGVIINSPNNPSGTVYSEETIKKLSDLLEKKSKEIGRPIFIIADEPYREIVYDGIKVPFVTKYYDNTLVCYSYSKSLSLPGERIGYVLVPDEVYDKAELYAAVCGAGRALGYVCAPSLFQKMIVKCQGATGDINAYKENRDLLYEGLTRIGYHCFKPDGAFYMFVKALEDDSNAFCEKAKEEDVLIVAADGFGCPGWVRISYCVDREMIKHSMPAFEKIYKKYNK”, the protein production result was “not failed”.

As to “MVVRTWRSMQERYNLIGSKCKTCGTVYFPARSVCPECRRKGELEDYKLNGKGKVYTYSVVYAAPKDFEKQSPYVIGIVELEEGTKITSQIDCEPEEVKIGMPVEATFRKIREDGCDGVISYGYKFVPTEQLEHHHHHH”, the protein production result is listed as “failed”.

“MVVSIGVFDGVHIGHQKVLRTMKEIAFFRKDDSLIYTISYPPEYFLPDFPGLLMTVESRVEMLSRYARTVVLDFFRIKDLTPEGFVERYLSGVSAVVVGRDFRFGKNASGNASFLRKKGVEVYEIEDVVVQGKRVSSSLIRNLVQEGRVEEIPAYLGRYFEIEGIVHKDREFGRKLGFPTANIDRGNEKLVDLKRGVYLVRVHLPDGKKKFGVMNVGFRPTVGDARNVKYEVYILDFEGDLYGQRLKLEVLKFMRDEKKFDSIEELKAAIDQDVKSARNMIDDIINSKFEKEG”: the protein production entry is given as “not failed”.

Regarding “MVWWWRALGPSGEGQPGPLPSSLFPVIDPSRPTMQDIECLGVYTSGGDAPGMNACLRAVVRTAIANDIAVMGIRRGYEGMIEADFVEMERRSVSNILQSGGTILKSARSEAFRTEEGRRAAANSLRENGIDALVAIGGDGTFRGASKLYDEHGLGVVGCPGTIDNDLYGTDQTIGYDTALNTAIDNIDRIRDTADAHNRLFLVEVMGRDAGFIALNSGIGGGAELILIPETITEMDMVKERILSLMTAQRRSTIVVVAEGDELGGAQGIERALRDDAAFSDIELRSTILGHTQRGGAPTASDRVLASRLGVAAVESLMDGHSDVMVGMTNNEIKLTPLRNVYGRRKSIDYDLLKLTQILS”, the protein production entry is listed as “failed”.

As for “MVYRDDYFIRHSISVSAVIVRAWITHKYSGRDWNVKWEENLLHAVAKNYTLLQTIPPFERPFKDHQVCLEWNMGYIWNLRANRIPQCPLENDVVALLGFPYASSGENTGIVKKFPRFRNRELEATRRQRMDYPVFTVSLWLYLLHYCKANLCGILYFVDSNEMYGTPSVFLTEEGYLHIQMHLVKGEDLAVKTKFIIPLKEWFRLDISFNGGQIVVTTSIGQDLKSYHNQTISFREDFHYNDTAGYFIIGGSRYVAGIEGFFGPLKYYRLRSLHPAQIFNPLLEKQLAEQIKLYYERCAEVQEIVSVYASAAKHGGERQEACHLHNSYLDLQRRYGRPSMCRAFPWEKELKDKHPSLFQALLEMDLLTVPRNQNESVSEIGGKIFEKAVKRLSSIDGLHQISSIVPFLTDSSCCGYHKASYYLAVFYETGLNVPRDQLQGMLYSLVGGQGSERLSSMNLGYKHYQGIDNYPLDWELSYAYYSNIATKTPLDQHTLQGDQAYVETIRLKDDEILKVQTKEDGDVFMWLKHEATRGNAAAQQRLAQMLFWGQQGVAKNPEAAIEWYAKGALETEDPALIYDYAIVLFKGQGVKKNRRLALELMKKAASKGLHQAVNGLGWYYHKFKKNYAKAAKYWLKAEEMGNPDASYNLGVLHLDGIFPGVPGRNQTLAGEIFHKAAQGGHMEGTLWCSLYYITGNLETFPRDPEKAVVWAKHVAEKNGYLGHVIRKGLNAYLEGSWHEALLYYVLAAETGIEVSQTNLAHICEERPDLARRYLGVNCVWRYYNFSVFQIDAPSFAYLKMGDLYYYGHQNQSQDLELSVQMYAQAALDGDSQGFFNLALLIEEGTIIPHHILDFLEIDSTLHSNNISILQELYERCWSHSNEESFSPCSLAWLYLHLRLLWGAILHSALIYFLGTFLLSILIAWTVQYFQSVSASDPPPRPSQASPDTATSTASPAVTPAADASDQDQPTVTNNPEPRG”, the protein production entry is on record as “failed”.

Take “MWESKFVKEGLTFDDVLLVPAKSDVLPREVSVKTVLSESLQLNIPLISAGMDTVTEADMAIAMARQGGLGIIHKNMSIEQQAEQVDKVKRSESGVISDPFFLTPEHQVYDAEHLMGKYRISGVPVVNNLDERKLVGIITNRDMRFIQDYSIKISDVMTKEQLITAPVGTTLSEAEKILQKYKIEKLPLVDNNGVLQGLITIKDIEKVIEFPNSAKDKQGRLLVGAAVGVTADAMTRIDALVKASVDAIVLDTAHGHSQGVIDKVKEVRAKYPSLNIIAGNVATAEATKALIEAGANVVKVGIGPGSICTTRVVAGVGVPQLTAVYDCATEARKHGIPVIADGGIKYSGDMVKALAAGAHVVMLGSMFAGVAESPGETEIYQGRQFKVYRGMGSVGAMEKGSKDRYFQEGNKKLVPEGIEGRVPYKGPLADTVHQLVGGLRAGMGYCGAQDLEFLRENAQFIRMSGAGLLESHPHHVQITKEAPNYSL”: the protein production entry is reported as “not failed”.

Take “MWFQNYLLAKFMMNRKGLMANYRVWRRRWFYPLISVVVAVSLCLGTPLVGRAIDLRPLLLQGVQVLQLSNISDRQEVDLGNQMNQQLRSSEVKISRNAEITRYVDQIGQRLVANSDRPNLPFTFQVVENDAVNAFATLGGFVYIHTGLLKTADNEAELASVIAHEIGHIGGRHLVKQMRQRALASGLASATGLDRNTAVGLGVELALNRPRSRQDEFDADTRGLRTLTRAGYAPSAMVSFMQKLTKGGGSVPAFLSTHPATGDRITSLRRAINSQGSNGRDGLDNAAYRARIRSIL”: the protein production entry is listed as “failed”.

In the case of “MWKAVMNAWNGTESQSKNVSNIQSYSFEDMKRIVGKHDPNVVLVDVREPSEYSIVHIPASINVPYRSHPDAFALDPLEFEKQIGIPKPDSAKELIFYCASGKRGGEAQKVASSHGYSNTSLYPGSMNDWVSHGGDKLDL”, the protein production result was “not failed”.

With “MWKTASDKGLGHLLRDVWSLLNEEERELLDKEIQPFPCKKASTVFSEGDIPNNLFYLYEGKIKILREGVYGRFHISRIVKPGQFFGMRPYFAEETCSSTAIAVENSKVLAIPVEAIEALLKGNTSFCRYFLKALAKELGYAERRTVTLTQKHVRGRLAETLLILKENFGFENDGATLSIYLSREELATLSNMTVSNAIRTLSTFVSERMLALDGKRIKIIDCDRLQKTARSG”, the protein production entry is on record as “not failed”.

Take “MWLGYMNKSIPTTRKTRTFKAMSIEFSAPAKMKIEVWSDIMCPFCYIGKKRLDDALSTFDQAGRIEVEYKSFELMPGLETHPLRSDVEYLADAKGMSLEQARQMNGQVQAMAQATGLEMNPDETIAANTINAHRLTHFAKAHGKQQEVAQELFKAHFVDGKNVDDLDVLVSIAAEVGLDASAAREALESDVYTNEVQQDVHEARQLGVQGVPFFVFDRKYAINGAQQEEVFTGTVEKAFEEWAAENPVSPFEVIDGQSCSVDGTCN”: the protein production entry is reported as “not failed”.

On to “MWPASRCASDSSLQCGRPNDRIPMSDIAVLINTAVAVLAAVLLIVRFRVNPVISLILASVYLGLAVGLGVEKTVKTITGGFGEIMVDVGLLIAFGVLMGSILNQSGAIRRLVEHLLKTFGPKRLPYTMGLAIGTVLQSIFLDVLLVISAPLARKLAPKIGKLGTARMATAMAIALECGIVFTVPGVASLALAGLLNVPLGKMLLFGLLLVIPTIIISIAIMTFLFRRGFWNEAKDEDHTFVAEEDSEGEEPTDGGAATVPPTANSERGTAASSAQPAGGSVAVVERERKEAPLILLFAPLLTSLLLIGAGAILEILEISMPWLQLLGEPVIALLIGLIGTCLVTRAAIGQKKVEEAIAVGFKESGQILILTGVGGSLAATVAAAGLGDILGGFFSASTVAPLLVVWAIAAVLHIAVGSVTLSAITAAGLLAPIAPAIGLDPVLLALAAGAGSLFMVHVTSNTFWLLQSLLGQSVRGALKSVTVGVSVASVVAILLILPMSLLF”, for which the protein production result is “failed”.

Regarding “MWRVRCKAKGGTHLLQGLSSRTRLRELQGQIAAITGIAPGSQRILVGYPPECLDLSDRDITLGDLPIQSGDMLIVEEDQTRPKASP”, the protein production entry is “not failed”.
